Test results taken from PMC9021188 (Cell Discovery, 2022).

Columns and labels:
SARS-CoV RBD protein = SARS-CoV RBD protein (SARS-CoV, UniProt P59594); assay: cell-based or functional assay
RaTG13 RBD protein = RaTG13 RBD protein (Bat coronavirus RaTG13, UniProt A0ABF7PLN6); assay: ELISA; conditions: both partners purified

B1: GW01 (antibody, V domains shown)
VH: EVQLVESGGGVVQPGGSLRLSCAASGFRFDDHAMHWVRQAPGKGLEWVSVISGDGGSTYYADSVKGRFSISRDDSKNSLYLQMNSLRTEDTALYYCAKDRSYGPPDVFNYEYGMDVWGQGTTVTVSS
VL: not shown
notes: also called mAb GW01; antibody GW01
In the case of B1, the “IC50 of neutralisation of pseudotyped SARS-CoV on Huh-7 cells” value (SARS-CoV RBD protein) is reported as 0.0193 µg/mL and the binding result (RaTG13 RBD protein) is reported as “binds”.
